Data: publication PMC3553987 (Nucleic Acids Research, 2012)

Columns and labels:
[1] = tested on: GAS consensus site DNA (TTCnnnGAA); assay: TIRF-PBM binding of STAT1 proteins to DNA
GAS cognate DNA = assay: EMSA with P32-labeled cognate DNA; format: binding; details: data not shown

average fold impact on binding compared to P-STAT1 at preferred binding sites ([1]; reduced binding) | fold impact on affinity compared to P-STAT1 binding ([1]; optimal GAS site DNA) | fold decrease in binding affinity vs P-STAT1 (GAS cognate DNA) | Molecule
2.6 fold | – | – | P-STAT1tc: Phosphorylated truncated STAT1 lacking N-terminal domain and short C-terminal activation domain (amino acids 132-712) (protein, UniProt P42224 132-712, looked up, fragment, phosphorylated) STVMLDKQKELDSKVRNVKDKVMCIEHEIKSLEDLQDEYDFKCKTLQNREHETNGVAKSDQKQEQLLLKKMYLMLDNKRKEVVHKIIELLNVTELTQNALINDELVEWKRRQQSACIGGPPNACLDQLQNWFTIVAESLQQVRQQLKKLEELEQKYTYEHDPITKNKQVLWDRTFSLFQQLIQSSFVVERQPCMPTHPQRPLVLKTGVQFTVKLRLLVKLQELNYNLKVKVLFDKDVNERNTVKGFRKFNILGTHTKVMNMEESTNGSLAAEFRHLQLKEQKNAGTRTNEGPLIVTEELHSLSFETQLCQPGLVIDLETTSLPVVVISNVSQLPSGWASILWYNMLVAEPRNLSFFLTPPCARWAQLSEVLSWQFSSVTKRGLNVDQLNMLGEKLLGPNASPDGLIPWTRFCKENINDKNFPFWLWIESILELIKKHLLPLWNDGCIMGFISKERERALLKDQQPGTFLLRFSESSREGAITFTWVERSQNGGEPDFHAVEPYTKKELSAVTFPDIIRNYKVMAAENIPENPLKYLYPNIDKDHAFGKYYSRPKEAPEPMELDGPKGTGYIKTELISVSEV
– | > 100 fold | > 200 fold | U-STAT1: unphosphorylated STAT1 (protein, UniProt P42224 2-750, looked up, unphosphorylated) Signal transducer and …: SQWYELQQLDSKFLEQVHQLYDDSFPMEIRQYLAQWLEKQDWEHAANDVSFATIRFHDLLSQLDDQYSRFSLENNFLLQHNIRKSKRNLQDNFQEDPIQMSMIIYSCLKEERKILENAQRFNQAQSGNIQSTVMLDKQKELDSKVRNVKDKVMCIEHEIKSLEDLQDEYDFKCKTLQNREHETNGVAKSDQKQEQLLLKKMYLMLDNKRKEVVHKIIELLNVTELTQNALINDELVEWKRRQQSACIGGPPNACLDQLQNWFTIVAESLQQVRQQLKKLEELEQKYTYEHDPITKNKQVLWDRTFSLFQQLIQSSFVVERQPCMPTHPQRPLVLKTGVQFTVKLRLLVKLQELNYNLKVKVLFDKDVNERNTVKGFRKFNILGTHTKVMNMEESTNGSLAAEFRHLQLKEQKNAGTRTNEGPLIVTEELHSLSFETQLCQPGLVIDLETTSLPVVVISNVSQLPSGWASILWYNMLVAEPRNLSFFLTPPCARWAQLSEVLSWQFSSVTKRGLNVDQLNMLGEKLLGPNASPDGLIPWTRFCKENINDKNFPFWLWIESILELIKKHLLPLWNDGCIMGFISKERERALLKDQQPGTFLLRFSESSREGAITFTWVERSQNGGEPDFHAVEPYTKKELSAVTFPDIIRNYKVMAAENIPENPLKYLYPNIDKDHAFGKYYSRPKEAPEPMELDGPKGTGYIKTELISVSEVHPSRLQTTDNLLPMSPEEFDEVSRIVGSVEFDSMMNTV
